B1: Subtilisin-chymotrypsin inhibitor-2A, P01053 (parent)
chain: MSSVEKKPEGVNTGAGDRHNLKTEWPELVGKSVEEAKKVILQDKPEAQIIVLPVGTIVTMEYRIDRVRLFVDKLDNIAQVPRVG

Variants of: B1
Settings: Hordeum vulgare, MES 450 mM, reversible: yes, structure 2CI2, whole UniProt chain shown; for ddG of mutation (higher = less stable) / denaturant m value / denaturant midpoint (higher = more stable) / unfolding free energy / heat capacity change of unfolding: 25 °C

Row | Variant | Tm (pH 3, Thermal, DSC) [°C] | change of melting temperature, mutant - wild type (higher = more stable) (pH 3, Thermal, DSC) [°C] | unfolding enthalpy (calorimetric) (pH 3, Thermal, DSC) [kcal/mol] | unfolding enthalpy (van 't Hoff) (pH 3, Thermal, DSC) [kcal/mol] | ddG of mutation (higher = less stable) (pH 6.3, GdnHCl, Fluorescence) [kcal/mol] | denaturant m value (pH 6.3, GdnHCl, Fluorescence) [kcal/mol/M] | denaturant midpoint (higher = more stable) (pH 6.3, GdnHCl, Fluorescence) [M] | unfolding free energy (pH 6.3, GdnHCl, Fluorescence) [kcal/mol] | ddG of mutation (higher = less stable) (pH 3, Thermal, DSC) [kcal/mol] | heat capacity change of unfolding (pH 3, Thermal, DSC) [kcal/mol/K] | Tm (pH 3.5, Thermal, DSC) [°C] | change of melting temperature, mutant - wild type (higher = more stable) (pH 3.5, Thermal, DSC) [°C] | unfolding enthalpy (calorimetric) (pH 3.5, Thermal, DSC) [kcal/mol] | unfolding enthalpy (van 't Hoff) (pH 3.5, Thermal, DSC) [kcal/mol] | ddG of mutation (higher = less stable) (pH 3.5, Thermal, DSC) [kcal/mol] | heat capacity change of unfolding (pH 3.5, Thermal, DSC) [kcal/mol/K]
1 | L28A | 48.5 | -15.5 | 45 | 44.4 | 1.91 | 2.15 | 2.62 | 5.63 | – | – | – | – | – | – | – | –
2 | V71A | 51.3 | -12.7 | 48.5 | 49.7 | 1.13 | 2.15 | 2.98 | 6.41 | 2.17 | 0.72 | – | – | – | – | – | –
3 | V67A | – | – | – | – | 4.97 | 1.76 | 1.46 | 2.57 | – | – | 45.3 | -28.5 | 37.3 | 35.8 | – | –
4 | I49A | – | – | – | – | 3.4 | 2.07 | 2 | 4.14 | – | – | 52.5 | -21.3 | 44.9 | 46.9 | 3.89 | 0.72
5 | I49V | – | – | – | – | 0.75 | 1.99 | 3.43 | 6.8 | – | – | 69.1 | -4.7 | 62.4 | 61.6 | 0.92 | 0.72
6 | V39A | 61.1 | -2.9 | 58.5 | 58.6 | 0 | 2.01 | 3.75 | 7.54 | 0.46 | 0.72 | – | – | – | – | – | –
7 | I77V | 65.4 | 1.4 | 60.5 | 60.5 | – | – | – | – | -0.09 | 0.72 | – | – | – | – | – | –
8 | I77A | 38.3 | -25.7 | 30.2 | 37.2 | 4.09 | 1.93 | 1.79 | 3.45 | 4.23 | 0.72 | 50.3 | -23.5 | 41 | 46.8 | 4.34 | 0.72
9 | I49A I77V | – | – | – | – | 4.08 | 1.83 | 1.9 | 3.46 | – | – | – | – | – | – | 4.69 | 0.72
10 | L69A | – | – | – | – | 3.56 | 1.98 | 2.01 | 3.98 | – | – | 52.3 | -21.5 | 46.7 | 46.9 | 3.74 | 0.72
11 | I40V | 57.7 | -6.3 | 53.7 | 54.8 | 0.91 | 1.99 | 3.33 | 6.63 | 1.2 | 0.72 | 67.3 | -6.5 | 61.5 | 62.5 | – | –

Reference: FireProtDB (doi:10.1021/bi00093a001)
